For experiment [1], the target named is FcγR3A (CD16aV158) (human). Briefly: FRET or BRET; time-resolved FRET (Cisbio); FcγRs expressed on HEK293 cells (Tb donor cells); IgG-d2 acceptor conjugate displaced by the test antibodies; EC50 by the manufacturer's protocol. (In general: In BRET a luciferase serves as donor, and the signal depends on an acceptor being close.)
Experiment [2] concerns the target FcγR2A (CD32aR131) (human). The description is as above.
Experiment [3] addresses SIRPα variant 6 Fc (haplotype v6 ELE) (human) (UniProt P78324). Briefly: BLI; Octet, under affinity conditions; SIRPα variants 1-6 Fc captured on anti-human capture tips, dipped into 50 nmol/L BMS-986351-Fab; association 180 s, dissociation 180 s; 2 x 10^-4 is the limit of koff that can be confidently assigned. In general terms: BLI is a label-free optical method that tracks binding on a fibre tip over time.

For experiment [4], the target named is SIRPα variant 4 Fc (haplotype v4 ESK) (human) (UniProt P78324). The description is as above.
Experiment [5] addresses SIRPα variant 5 Fc (haplotype v5 EPN) (human) (UniProt P78324). The description is as above.
Experiment [6] has as its target SIRPα variant 3 Fc (haplotype v3 DLE) (human) (UniProt P78324). The experiment is described as above.

Some results are limits rather than exact numbers.

A word on the EC50: it is the concentration needed to bring the measured effect to its halfway point. Higher therefore signals a less potent agent. Usually Kd stands for the equilibrium constant for the complex coming apart. A low value points to tighter binding. The term koff denotes the first-order rate constant of dissociation. Read a low koff as a long-lived complex. Broadly, the kon is a measure of how fast the partners come together.

Sequence of SIRPα variant 5 Fc (haplotype v5 EPN) (human) (P78324 other isoform, or with tags, fused parts or gaps, change not shown): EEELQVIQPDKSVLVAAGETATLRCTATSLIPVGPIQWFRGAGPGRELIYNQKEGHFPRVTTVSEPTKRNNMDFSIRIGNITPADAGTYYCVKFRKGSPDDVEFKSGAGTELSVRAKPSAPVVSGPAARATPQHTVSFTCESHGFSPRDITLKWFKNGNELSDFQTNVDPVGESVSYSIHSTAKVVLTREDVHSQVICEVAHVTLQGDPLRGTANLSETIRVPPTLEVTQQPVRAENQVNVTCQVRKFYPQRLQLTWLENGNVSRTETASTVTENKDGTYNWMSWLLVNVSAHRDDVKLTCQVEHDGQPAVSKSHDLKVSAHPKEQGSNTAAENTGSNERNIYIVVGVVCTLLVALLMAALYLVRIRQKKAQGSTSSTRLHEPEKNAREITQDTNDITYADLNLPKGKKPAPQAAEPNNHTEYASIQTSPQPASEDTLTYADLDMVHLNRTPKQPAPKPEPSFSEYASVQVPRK
Sequence of SIRPα variant 4 Fc (haplotype v4 ESK) (human) (P78324 other isoform, or with tags, fused parts or gaps, change not shown): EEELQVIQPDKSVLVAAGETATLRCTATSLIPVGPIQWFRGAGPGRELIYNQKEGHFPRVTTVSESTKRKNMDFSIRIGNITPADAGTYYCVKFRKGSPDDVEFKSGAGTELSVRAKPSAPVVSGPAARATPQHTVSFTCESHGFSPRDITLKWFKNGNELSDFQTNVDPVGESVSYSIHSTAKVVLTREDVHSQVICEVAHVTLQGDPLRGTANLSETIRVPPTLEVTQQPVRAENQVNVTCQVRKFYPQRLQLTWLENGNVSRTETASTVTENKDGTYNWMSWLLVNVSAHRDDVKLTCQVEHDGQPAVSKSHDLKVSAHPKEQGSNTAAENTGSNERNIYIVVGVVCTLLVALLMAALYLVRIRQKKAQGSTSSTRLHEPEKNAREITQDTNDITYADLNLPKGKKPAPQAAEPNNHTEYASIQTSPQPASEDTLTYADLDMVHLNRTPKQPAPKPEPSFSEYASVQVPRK
Sequence of SIRPα variant 3 Fc (haplotype v3 DLE) (human) (P78324 other isoform, or with tags, fused parts or gaps, change not shown): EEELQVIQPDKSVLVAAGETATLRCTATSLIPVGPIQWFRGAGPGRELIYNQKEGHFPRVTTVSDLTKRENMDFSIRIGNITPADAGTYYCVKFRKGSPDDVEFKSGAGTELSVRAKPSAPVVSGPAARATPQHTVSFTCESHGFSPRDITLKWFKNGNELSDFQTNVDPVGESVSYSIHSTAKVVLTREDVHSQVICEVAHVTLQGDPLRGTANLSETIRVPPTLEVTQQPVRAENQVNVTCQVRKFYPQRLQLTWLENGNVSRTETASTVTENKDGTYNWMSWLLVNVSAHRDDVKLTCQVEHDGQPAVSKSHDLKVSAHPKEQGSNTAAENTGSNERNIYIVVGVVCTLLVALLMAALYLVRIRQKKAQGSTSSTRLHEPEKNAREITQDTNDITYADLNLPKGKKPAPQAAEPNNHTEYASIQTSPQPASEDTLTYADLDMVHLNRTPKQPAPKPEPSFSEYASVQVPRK
Sequence of SIRPα variant 6 Fc (haplotype v6 ELE) (human) (P78324 other isoform, or with tags, fused parts or gaps, change not shown): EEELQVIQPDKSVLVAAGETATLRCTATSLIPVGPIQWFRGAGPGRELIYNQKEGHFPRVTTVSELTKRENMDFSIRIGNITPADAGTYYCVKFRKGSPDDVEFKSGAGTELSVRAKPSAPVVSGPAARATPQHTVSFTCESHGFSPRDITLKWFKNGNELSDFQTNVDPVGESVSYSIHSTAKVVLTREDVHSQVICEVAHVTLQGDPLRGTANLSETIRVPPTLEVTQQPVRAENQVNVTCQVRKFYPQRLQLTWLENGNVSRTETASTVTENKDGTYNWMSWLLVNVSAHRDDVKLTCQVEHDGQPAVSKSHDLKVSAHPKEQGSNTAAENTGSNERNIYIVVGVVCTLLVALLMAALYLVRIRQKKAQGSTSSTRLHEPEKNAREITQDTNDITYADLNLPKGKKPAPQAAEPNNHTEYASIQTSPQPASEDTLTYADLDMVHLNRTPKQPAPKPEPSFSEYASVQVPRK
Sequence of FcγR2A (CD32aR131) (human) (P12318 34-317 H167R): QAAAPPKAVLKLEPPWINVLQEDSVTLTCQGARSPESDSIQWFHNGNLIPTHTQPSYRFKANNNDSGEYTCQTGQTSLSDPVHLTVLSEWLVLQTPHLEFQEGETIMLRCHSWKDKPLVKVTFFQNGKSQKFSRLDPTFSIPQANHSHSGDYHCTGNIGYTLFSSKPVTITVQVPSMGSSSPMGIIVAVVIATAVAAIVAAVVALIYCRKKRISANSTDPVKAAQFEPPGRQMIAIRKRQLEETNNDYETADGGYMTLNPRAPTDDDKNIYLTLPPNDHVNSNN
Sequence of FcγR3A (CD16aV158) (human) (P08637 17-254 F176V): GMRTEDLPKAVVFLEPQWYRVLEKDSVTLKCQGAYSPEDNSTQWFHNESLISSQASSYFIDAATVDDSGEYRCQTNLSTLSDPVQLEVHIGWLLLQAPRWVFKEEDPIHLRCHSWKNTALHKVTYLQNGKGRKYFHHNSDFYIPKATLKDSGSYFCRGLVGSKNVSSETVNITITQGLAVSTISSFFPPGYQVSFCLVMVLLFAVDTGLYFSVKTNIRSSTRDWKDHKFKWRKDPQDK

B1: BMS-986351 (antibody, V domains shown)
VH: QVQLVQSGAEVKKPGASVKVSCKASGYTFRGYGISWVRQAPGQGLEWMGWISAYGGETNYAQKLQGRVTMTTDTSTSTAYMELRSLRSDDTAVYYCAREAGSSWYDFDLWGRGTLVTVSS
VL: DIQMTQSPSSVSASVGDRVTITCRASQGISSWLAWYQQKPGKAPKLLIYAASNLQSGVPSRFSGSGSGTDFTLTISSLQPEDFATYYCQQGASFPITFGGGTKVEIK
As to B1, the values for the EC50 in experiment [1] and in experiment [2] were 795 nM and 188 nM, respectively.

B2: BMS-986351-Fab (Fab, V domains shown)
VH: QVQLVQSGAEVKKPGASVKVSCKASGYTFRGYGISWVRQAPGQGLEWMGWISAYGGETNYAQKLQGRVTMTTDTSTSTAYMELRSLRSDDTAVYYCAREAGSSWYDFDLWGRGTLVTVSS
VL: DIQMTQSPSSVSASVGDRVTITCRASQGISSWLAWYQQKPGKAPKLLIYAASNLQSGVPSRFSGSGSGTDFTLTISSLQPEDFATYYCQQGASFPITFGGGTKVEIK
In the case of B2, the Kd is 0.183 nM in experiment [3], 1.52 nM in experiment [4], 0.611 nM in experiment [5] and less than 0.145 nM in experiment [6]. Besides, the koff in experiment [3] was 0.000356 s⁻¹; in experiment [4], 0.00228 s⁻¹; in experiment [5], 0.00106 s⁻¹; in experiment [6], less than 0.0002 s⁻¹. The on-rate (kon) in experiment [3] was 1.94e+06 M⁻¹ s⁻¹; in experiment [4] it was 1.5e+06 M⁻¹ s⁻¹; in experiment [5], 1.73e+06 M⁻¹ s⁻¹; in experiment [6] it was 1.38e+06 M⁻¹ s⁻¹.
